Source: patent US9012420B2, “Aptamer for chymase, and use thereof” (Ribomic Inc., priority 2009, dated 2015)

T1: chymase (recombinant, manufactured by SIGMA) (Homo sapiens, UniProt P23946)
T1 construct: purchased SIGMA; host or cells: yeast
T1 sequence (P23946 22-247): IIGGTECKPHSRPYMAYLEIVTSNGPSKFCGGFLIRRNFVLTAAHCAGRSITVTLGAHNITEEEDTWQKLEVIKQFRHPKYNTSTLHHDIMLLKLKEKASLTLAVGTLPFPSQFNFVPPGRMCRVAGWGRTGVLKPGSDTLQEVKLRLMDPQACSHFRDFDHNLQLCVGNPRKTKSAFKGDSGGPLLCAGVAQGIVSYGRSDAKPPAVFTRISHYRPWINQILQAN

T2: native chymase (purified from human skin mast cell) (Homo sapiens, UniProt P23946)
T2 construct: the native is chymase purified from human skin mast cell; purchased Calbiochem; host or cells: human skin mast cell
T2 sequence (P23946 22-247): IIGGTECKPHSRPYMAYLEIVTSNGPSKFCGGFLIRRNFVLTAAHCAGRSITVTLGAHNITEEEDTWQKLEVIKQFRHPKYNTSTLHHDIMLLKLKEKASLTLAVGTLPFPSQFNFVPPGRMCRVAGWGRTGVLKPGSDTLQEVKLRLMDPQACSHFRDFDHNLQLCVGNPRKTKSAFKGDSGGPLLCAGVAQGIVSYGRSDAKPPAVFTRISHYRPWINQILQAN

T3: recombinant chymase (expressed by yeast) (Homo sapiens, UniProt P23946)
T3 construct: purchased SIGMA; host or cells: yeast
T3 sequence (P23946 22-247): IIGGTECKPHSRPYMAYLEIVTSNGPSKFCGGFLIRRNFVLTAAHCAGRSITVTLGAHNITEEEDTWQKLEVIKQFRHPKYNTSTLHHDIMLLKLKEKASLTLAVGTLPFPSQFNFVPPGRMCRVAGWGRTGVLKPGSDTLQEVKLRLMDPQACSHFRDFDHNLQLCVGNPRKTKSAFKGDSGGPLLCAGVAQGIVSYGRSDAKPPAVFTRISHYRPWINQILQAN

T4: chymase (Homo sapiens, UniProt P23946)
T4 sequence (P23946 22-247): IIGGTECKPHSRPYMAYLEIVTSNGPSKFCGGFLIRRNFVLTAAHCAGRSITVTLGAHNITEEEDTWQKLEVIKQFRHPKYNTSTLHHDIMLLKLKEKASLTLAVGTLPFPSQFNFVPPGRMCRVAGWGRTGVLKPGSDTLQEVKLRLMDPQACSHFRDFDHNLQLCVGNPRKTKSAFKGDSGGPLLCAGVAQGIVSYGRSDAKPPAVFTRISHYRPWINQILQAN

T5: chymase (recombinant) (UniProt P23946 P23946:22-247)
T5 sequence: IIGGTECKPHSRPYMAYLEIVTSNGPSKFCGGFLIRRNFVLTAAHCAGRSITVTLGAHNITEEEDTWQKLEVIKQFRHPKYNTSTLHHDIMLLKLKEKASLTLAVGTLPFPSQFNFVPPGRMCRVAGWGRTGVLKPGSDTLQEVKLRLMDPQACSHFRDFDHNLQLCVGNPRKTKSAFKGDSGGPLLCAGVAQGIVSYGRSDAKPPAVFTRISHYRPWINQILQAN


Assays:
[1] = biological target: T1, chymase (recombinant, manufactured by SIGMA); assay: Chymase inhibitory activity using synthetic substrate Suc-Ala-Ala-Pro-Phe-MCA; assay type: biochemical
Outline: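 Human recombinant chymase (16.7 nM or 1.67 nM final) preincubated 5 min at 37° C., then added to nucleic acid (0.0027–2 μM serial dilutions) and 100 μM substrate in solution C. AMC fluorescence (ex 380/em 460 nm) followed 5 or 30 min at 37° C.; slope gives initial velocity, inhibition versus no-inhibitor control yields IC50.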

[2] = biological target: T2, native chymase (purified from human skin mast cell); assay: Chymase inhibitory activity using angiotensin I as substrate, native chymase; assay type: biochemical; settings: final 50 μM, chymase 0.2-0.5 nM, 37° C. 90 min, one measurement
Protocol: (§1) A second method of evaluation employs a native substrate. A useful native substrate for chymase is angiotensin I. Here, His-Leu, a peptide fragment released upon degradation of angiotensin I, is fluorescently derivatized, and the fluorescence intensity therefrom is quantified.
(§2) In the assay, an enzyme reaction is carried out in 50 μL of solution C. First, 0.3-0.75 ng of chymase (recombinant, manufactured by SIGMA; or native, manufactured by Calbiochem) is diluted in solution C to obtain 5 μL chymase solution. Each nucleic acid is prepared in solution C to obtain 25 μL solutions. 5 μL of each chymase dilution and 25 μL of each nucleic acid solution are mixed, and then the mixture is incubated at 37° C. for 5 minutes. […] The angiotensin I solution is added to the mixture of chymase and nucleic acid, and the enzyme reaction is initiated. After the reaction was allowed to proceed at 37° C. for 90 minutes, 25 μL of ice-cooled 30% trichloroacetic acid solution is added to terminate the reaction. The entire mixture is centrifuged at 4° C., 14000 rpm for 10 minutes, and 30 μL of the resulting supernatant is used for the subsequent reaction for fluorescent derivatization.
(§3) After 30 μL of the supernatant is added to a 96-well plate (Black, manufactured by Costar), 15 μL of 2% o-phthalaldehyde (manufactured by SIGMA) solution in methanol and 170 μL of 0.3M NaOH solution are mixed in each well, and the plate is allowed to stand at room temperature for 10 minutes. Subsequently, 25 μL of 3M HCl solution is added to terminate the reaction. The plate is set to the microplate reader SpectraMax190 (manufactured by Molecular Devices Corporation), and the fluorescence intensity is determined at an excitation wavelength of 355 nm and a fluorescence wavelength of 460 nm.
(§4) For control, samples are treated and analyzed in the same manner in two cases: use of SEQ ID NO: 58 (negative control) and use of chymostatin, a known chymotrypsin-like serine protease inhibitor (positive control). In both cases, fluorescence intensity obtained at 0 minute reaction time serves as a blank determination. Taking the fluorescence intensity detected with the addition of an equal volume of solution C, in place of each nucleic acid, in the chymase enzyme reaction as 100%, the inhibitory rate for each test substance is calculated, and the inhibitor concentration required to cause a 50% inhibition of the enzyme activity (IC50) is determined.
(§5) For further assessment of the inhibitory activity of the nucleic acid of the present invention, the enzyme activity of chymase was measured using angiotensin I, which is a native substrate for chymase, according to the following method. Angiotensin I is converted by chymase to angiotensin II, during which a peptide fragment His-Leu is released. Since the peptide His-Leu is fluorescently derivatized by o-phthalaldehyde, its fluorescence intensity can be quantitatively measured.
(§6) The total volume of solution for an enzyme reaction in the assay was set to 50 μL, and the reaction was performed in solution C buffer. First, 0.3-0.75 ng of chymase (recombinant, (manufactured by SIGMA) or native (manufactured by Calbiochem)) was diluted with solution C to give 5 μL thereof. Here, the recombinant is chymase expressed by yeast, and the native is chymase purified from human skin mast cell. The nucleic acid was serially diluted with solution C at a concentration of 0.0027-2 μM to give 25 μL thereof. The chymase solution (5 μL) and the nucleic acid solution (25 μL) were mixed, and the mixture was incubated at 37° C. for 5 min. On the other hand, […] angiotensin I (manufactured by PEPTIDE INSTITUTE, INC.) was prepared in solution C to give […] thereof, which was incubated at 37° C. for 5 min. The angiotensin I solution was added to a mixture of chymase and nucleic acid to start an enzyme reaction. The final chymase concentration of the reaction solution was 0.2-0.5 nM, and the final substrate concentration was 50 μM. […]

[3] = biological target: T3, recombinant chymase (expressed by yeast); assay: Chymase inhibitory activity using angiotensin I as substrate, recombinant chymase; assay type: biochemical; settings: final 50 μM, chymase 0.2-0.5 nM, 37° C. 90 min, one measurement
Protocol: as §1, §2, §3, §4, §5, §6

chymase = biological target: T4, chymase; assay: Surface plasmon resonance (Biacore T100), aptamer immobilized on SA chip, chymase injected as analyte; assay type: binding; parameters: key: ++: a sequence that binds to chymase significantly more strongly than the negative control 30N; settings: Table 2; same manner as Example 1, running buffer solution C; compared with 30N
Protocol: Binding strength is measured using Biacore T100 (manufactured by GE Healthcare). In a method of measurement, the aptamer is first immobilized onto a sensor chip, the amount immobilized being about 1000 RU. 20 μL of a chymase solution for analyte, prepared at 0.2 μM, is injected, and the binding of chymase to the aptamer is detected. An RNA comprising a random nucleotide sequence of 30 or 40 nucleotides is used as a negative control.
The binding activities against chymase of the nucleic acids shown by SEQ ID NO: 4-20 and 22-34 were determined by the surface plasmon resonance method using Biacore T100 (manufactured by GE Healthcare). The sensor chip used was the SA chip, which had streptavidin immobilized thereon. Bound thereto was about 1500 RU of a 16-nucleotide Poly dT with biotin bound to the 5′ end thereof. […] 20 μL of chymase for analyte, prepared at 0.2 μM, was injected. Solution A was used as a running buffer.
The binding activities against chymase of the nucleic acids shown by SEQ ID NO: 38-48 were evaluated by the surface plasmon resonance method. In the evaluations for SEQ ID NO: 38-48, measurements were taken in the same manner as Example 1. Solution C was used as a running buffer.

chymase (recombinant) = biological target: T5, chymase (recombinant); assay: inhibition; SPR ++; settings: tags: SIGMA, expressed in yeast
Protocol: Here, Suc is a protecting succinyl group, and MCA is a 4-methylcoumaryl-7-amide group; upon cleavage of the C-terminal side of phenylalanine, AMC (7-amino-4-methyl-coumarine) is released. By detecting the fluorescence of this AMC, the enzyme activity of chymase can be determined. The assay was performed using a 96-well plate (F16 Black Maxisorp Fluoronunc, manufactured by Nunc), with a reaction mixture volume of 100 μL, in solution C as a buffer solution. First, each nucleic acid was serially diluted to 0.0027-2 μM concentrations in solution C to obtain 50 μL solutions. After 10 μL of the 1 mM substrate prepared in solution C was added thereto, the plate was set to the microplate reader SpectraMax190 (manufactured by Molecular Devices Corporation), and incubated at 37° C. for 5 minutes. Separately, 0.05 μg (or 0.005 μg) of chymase (recombinant, manufactured by SIGMA) was diluted in solution C to obtain a 40 μL chymase solution, and incubated at 37° C. for 5 minutes. The chymase solution was added to the mixture of the nucleic acid and substrate to initiate an enzyme reaction. The final chymase concentration in the reaction mixture was 16.7 nM (or 1.67 nM), the final substrate concentration being 100 μM. The plate containing the reaction mixture was set to the microplate reader SpectraMax190 (manufactured by Molecular Devices Corporation), and examined for time-dependent changes in the fluorescence intensity at 37° C. for 5 minutes (or 30 minutes) (excitation wavelength 380 nm, detection wavelength 460 nm). A linear approximation of the increase in the fluorescence of the AMC released from the substrate by chymase activity was generated, and its slope was taken as the initial velocity […]. For control, samples were treated and analyzed in the same manner in two cases: use of a 30N or 40N (a nucleotide of 30 or 40 consecutive bases represented by N; N is A, G, C or T) nucleic acid pool (negative control), and use of chymostatin, a known chymotrypsin-like serine protease inhibitor (positive control). Taking the initial reaction velocity without the nucleic acid and inhibitor (V_0) as a 100% enzyme activity, the inhibitory rate of each test substance was calculated using the following equation: […]
The inhibitory activity on chymase was measured in the same manner as in Example 3.

[4] = Table 3, substrate 100 μM, solution C, 37° C., mean value for 2 to 3 measurements

| Molecule | Binding activity as determined using Biacore (chymase) | IC50 [1, 4] | further results |
| --- | --- | --- | --- |
| 69 (AAAGGGUUAGAUAGAGUUAAAAACCC; listed as RNA, chemistry not given here) [compound 69] | – | – | IC50 ([1]; Table 7, same manner as Example 3, mean value of two measurements): 91 ± 19 nM; IC50 [2]: > 1000 nM; IC50 [3]: 628 nM |
| 39 (nucleic acid, aptamer; 2'-fluoro at CU, RNA at AG, backbone not given here) GGGAGCAGGAGAGAGGUCAGAUGGUUACGGAUAGAGUUAAGGUAACGGUACGGCCUAUGCGUGCUAGUGUGA | ++ | – | – |
| 40 (nucleic acid, 2'-fluoro at CU, RNA at AG, backbone not given here) GGGAGCAGGAGAGAGGUCAGAUGAACGGAUAGAGCUAAGAGUUCGUCAGAGGGGCCUAUGCGUGCUAGUGUGA | ++ | 140 ± 85 nM | – |
| 38 (nucleic acid, aptamer; 2'-fluoro at CU, RNA at AG, backbone not given here) GGGAGCAGGAGAGAGGUCAGAUGGAUAGAGUUAAGAUCUGGCUGGCGCAUUAGCCUAUGCGUGCUAGUGUGA | ++ | 50 ± 12 nM | – |
| 46 (nucleic acid, aptamer; 2'-fluoro at CU, RNA at AG, backbone not given here) GGGAGCAGGAGAGAGGUCAGAUGGGACAGAUAGAGUUAAAGUCCGUUACGUGGCCUAUGCGUGCUAGUGUGA | ++ | 38 ± 4 nM | – |
| 42 (nucleic acid, aptamer; 2'-fluoro at CU, RNA at AG, backbone not given here) GGGAGCAGGAGAGAGGUCAGAUGCGUGAUCGUGCAAGGCGGAUAGAGUUAAGGCCUAUGCGUGCUAGUGUGA | ++ | 124 ± 26 nM | – |
| 43 (nucleic acid, aptamer; 2'-fluoro at CU, RNA at AG, backbone not given here) GGGAGCAGGAGAGAGGUCAGAUGAUGCCAAGAUAGAUUUAAAUGGCGUUUGGGCCUAUGCGUGCUAGUGUGA | ++ | 81 ± 50 nM | – |
| GGGUUAGAUAGAGUUAAAAACCC (ssRNA, 2'-F pyrimidines except U15 2'-OH) [56(16)] | – | – | IC50 (chymase (recombinant)): 58 nM |
| GGGUUAGAUAGAGUUAAAAACCC (ssRNA, 2'-F pyrimidines except U9 2'-OH) [56(15)] | – | – | IC50 (chymase (recombinant)): 61 nM |
| 45 (nucleic acid, aptamer; 2'-fluoro at CU, RNA at AG, backbone not given here) GGGAGCAGGAGAGAGGUCAGAUGGACCACCGAUGGGCAAGAUAGAGUUAAAUGCCUAUGCGUGCUAGUGUGA | ++ | 74 ± 11 nM | – |
| 47 (nucleic acid, aptamer; 2'-fluoro at CU, RNA at AG, backbone not given here) GGGAGCAGGAGAGAGGUCAGAUGGUGAUAGAUAGAGUUAAAAUCGCUGAAUGGCCUAUGCGUGCUAGUGUGA | ++ | 58 ± 12 nM | – |
| 44 (nucleic acid, aptamer; 2'-fluoro at CU, RNA at AG, backbone not given here) GGGAGCAGGAGAGAGGUCAGAUGUUAGACCAAAGCAUAGGAGAUAGAGUUAAACCUAUGCGUGCUAGUGUGA | ++ | 49 ± 13 nM | – |
| 48 (nucleic acid, aptamer; 2'-fluoro at CU, RNA at AG, backbone not given here) GGGAGCAGGAGAGAGGUCAGAUGUGAAGAUAGAGAUAAAUCACAUACAGUCGGCCUAUGCGUGCUAGUGUGA | ++ | 95 ± 18 nM | – |
